pKd: −log10 of the molar value.
Biological target: recombinant myostatin (R&D Systems) (UniProt O14793)
Test: SPR; Biacore 3000, CM5 chip, about 2000 RU of ligand (ActRIIB-Fc or myostatin) amine-coupled by EDC/NHS; analyte 6.25-100 nM in HBS-EP (0.01 M HEPES pH 7.4, 0.15 M NaCl, 3 mM EDTA, 0.005% P20); 21°C, 30 µL/min; association 180 s, dissociation 300 s

Sequence of UniProt O14793 (O14793 267-375): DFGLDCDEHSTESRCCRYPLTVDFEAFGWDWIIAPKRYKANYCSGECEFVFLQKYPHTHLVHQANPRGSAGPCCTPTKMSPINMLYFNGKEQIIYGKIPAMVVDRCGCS

“recombinant putative mature sheep myostatin splice variant (rMSV, aa 275-321) (domain or fragment)” was tested, and the pKd was 10.01, the koff was 4.32e-06 s⁻¹ and the kon was 44100 M⁻¹ s⁻¹.
